Laboratory results as given in patent publication US20030143198.

B1: 6-his tagged N-terminally truncated caspase 5 (protein)
chain: MGHHHHHHGILKLCPREEFLRLCKKNHDEIYPIKKREDRRRLALIICNTKFDHLPARNGAHYDIVGMKRLLQGLGYTVVDEKNLTARDMESVLRAFAARPEHKSSDSTFLVLMSHGILEGICGTAHKKKKPDVLLYDTIFQIFNNRNCLSLKDKPKVIIVQACRGEKHGELWVRDSPASLAVISSQSSENLEADSVCKIHEEKDFIAFCSSTPHNVSWRDRTRGSIFITELITCFQKYSCCCHLMEIFRKVQKSFEVPQAKAQMPTIERATLTRDFYLFPGN
B2: 6-his tagged N-terminally truncated caspase 4 (protein)
chain: MGHHHHHHGALKLCPHEEFLRLCKERAEEIYPIKERNNRTRLALIICNTEFDHLPPRNGADFDITGMKELLEGLDYSVDVEENLTARDMESALRAFATRPEHKSSDSTFLVLMSHGILEGICGTVHDEKKPDVLLYDTIFQIFNNRNCLSLKDKPKVIIVQACRGANRGELWVRDSPTSLEVASSQSSENLEEDAVYKTHVEKDFIAFCSSTPHNVSWRDSTMGSIFITQLITCFQKYSWCCHLEEVFRKVQQSFETPRAKAQMPTIERLSMTRYFYLFPGN
B3: Ubiquitin protease 1 (Ubp-1), full-length (protein)
chain: MDLFIESKINSLLQFLFGSRQDFLRNFKTWSNNNNNLSIYLLIFGIVVFFYKKPDHLNYIVESVSEMTTNFRNNNSLSRWLPRSKFTHLDEEILKRGGFIAGLVNDGNTCFMNSVLQSLASSRELMEFLDNNVIRTYEEIEQNEHNEEGNGQESAQDEATHKKNTRKGGKVYGKHKKKLNRKSSSKEDEEKSQEPDITFSVALRDLLSALNAKYYRDKPYFKTNSLLKAMSKSPRKNILLGYDQEDAQEFFQNILAELESNVKSLNTEKLDTTPVAKSELPDDALVGQLNLGEVGTVYIPTEQIDPNSILHDKSIQNFTPFKLMTPLDGITAERIGCLQCGENGGIRYSVFSGLSLNLPNENIGSTLKLSQLLSDWSKPEIIEGVECNRCALTAAHSHLFGQLKEFEKKPEGSIPEKLINAVKDRVHQIEEVLAKPVIDDEDYKKLHTANMVRKCSKSKQILISRPPPLLSIHINRSVFDPRTYMIRKNNSKVLFKSRLNLAPWCCDINEINLDARLPMSKKEKAAQQDSSEDENIGGEYYTKLHERFEQEFEDSEEEKEYDDAEGNYASHYNHTKDISNYDPLNGEVDGVTSDDEDEYIEETDALGNTIKKRIIEHSDVENENVKDNEELQEIDNVSLDEPKINVEDQLETSSDEEDVIPAPPINYARSFSTVPATPLTYSLRSVIVHYGTHNYGHYIAFRKYRGCWWRISDETVYVVDEAEVLSTPGVFMLFYEYDFDEETGKMKDDLEAIQSNNEEDDEKEQEQKGVQEPKESQEQGEGEEQEEGQEQMKFERTEDHRDISGKDVN

How the values were obtained:
[1] = biological target: Human precursor IL-18 (Pro-IL-18), co-expressed in E. coli from the bicistronic pET28 cassette
[2] = biological target: Human precursor IL-18 expressed as an N-terminal hexa-histidine tagged fusion
[3] = biological target: Ubiquitin-IL-18 fusion (76 amino acid ubiquitin fused to the N-terminus of mature human IL-18)

Protein | cleavage to mature IL-18 on co-expression in E. coli [1] | cleavage of prodomain, SDS-PAGE analysis [2] | processing of Ub-IL-18 to mature IL-18 on co-expression in E. coli (Western blot) [3]
B1 | cleavage to mature EL-18 with caspase-5 is complete by 18 hours at 29 °C | The cleavage reaction of prodomain was completed >90 % according to SDS-PAGE analysis | 
B2 | Cleavage to mature IL-18 with caspase-4 is complete by 4 hours at 37 °C or by 18 hours at 29 °C | The cleavage reaction of prodomain was completed >90 % according to SDS-PAGE analysis | 
B3 |  |  | efficient processing of Ub-IL-18 to mature active IL-18
